Measured values published in patent publication US12281181.
Numbered stars: 1 amine (or outer) side, 2 acyl side, 3 side chain; on linkers, the order of the positions; unused ones are H or OH. Bridge positions count the residues as written; N and C are the ends. Square brackets hold non-standard residues; d marks the D form. Ends that are not written are not given here. Trimesoyl = O=C(c1cc(C(=O)[*:2])cc(C(=O)[*:3])c1)[*:1]; 2Nal = N[C@@H](Cc1ccc2ccccc2c1)C(=O)O; Dap = NC[C@H](N)C(=O)O; βAla = NCCC(=O)O

B1: peptide 9 (peptide)
peptide: AGWIY[Dap]F[2Nal]R[dR]R[Dap][βAla][βAla]K
modifications: linker (positions not given here) via trimesic acid; not fully specified (bridges); printed as Tm(AGWIY)Δ(FΦRrRΔ)-BBK
B2: peptide 19 (peptide)
peptide: GWIYA[Dap]F[2Nal]R[dR]A[Dap][βAla][βAla]K
modifications: linker (positions not given here) via trimesic acid; not fully specified (bridges); printed as Tm(GWIYA)Δ(FΦRrAΔ)-BBK
B3: peptide 3 (peptide)
peptide: GWIY[Dap]F[2Nal]RRRR[Dap][βAla][βAla]K
modifications: linker (positions not given here) via trimesic acid; not fully specified (bridges); printed as Tm(GWIY)Δ(FΦRRRRΔ)-BBK
B4: peptide 21 (peptide)
peptide: GAAAA[Dap]F[2Nal]R[dR]R[Dap][βAla][βAla]K
modifications: linker (positions not given here) via trimesic acid; not fully specified (bridges); printed as Tm(GAAAA)Δ(FΦRrRΔ)-BBK
B5: peptide 7 (peptide)
peptide: GWIYA[Dap]F[2Nal]R[dR]R[Dap][βAla][βAla]K
modifications: linker N-6-12 via Trimesoyl; not fully specified (N-terminus); printed as Tm(GWIYA)Δ(FΦRrRΔ)-BBK
B6: peptide 13 (peptide)
peptide: GWAYA[Dap]F[2Nal]R[dR]R[Dap][βAla][βAla]K
modifications: linker (positions not given here) via trimesic acid; not fully specified (bridges); printed as Tm(GWAYA)Δ(FΦRrRΔ)-BBK
B7: peptide 14 (peptide)
peptide: GWIAA[Dap]F[2Nal]R[dR]R[Dap][βAla][βAla]K
modifications: linker (positions not given here) via trimesic acid; not fully specified (bridges); printed as Tm(GWIAA)Δ(FΦRrRΔ)-BBK
B8: peptide 11 (peptide)
peptide: AWIYA[Dap]F[2Nal]R[dR]R[Dap][βAla][βAla]K
modifications: linker (positions not given here) via trimesic acid; not fully specified (bridges); printed as Tm(AWIYA)Δ(FΦRrRΔ)-BBK
B9: peptide 4 (peptide)
peptide: GWIY[Dap]F[2Nal]RRR[Dap]R[βAla]K
modifications: linker N-5-11 via Trimesoyl; not fully specified (N-terminus); printed as Tm(GWIY)Δ(FΦRRRA)-RBK
notes: Bicyclic peptide; 4th arginine outside the B ring
B10: peptide 18 (peptide)
peptide: GWIYA[Dap]F[2Nal]R[dA]R[Dap][βAla][βAla]K
modifications: linker (positions not given here) via trimesic acid; not fully specified (bridges); printed as Tm(GWIYA)Δ(FΦRaRΔ)-BBK
B11: peptide 20 (peptide)
peptide: GAIAA[Dap]F[2Nal]R[dR]R[Dap][βAla][βAla]K
modifications: linker (positions not given here) via trimesic acid; not fully specified (bridges); printed as Tm(GAIAA)Δ(FΦRrRΔ)-BBK
B12: peptide 10 (peptide)
peptide: [dA]GWIY[Dap]F[2Nal]R[dR]R[Dap][βAla][βAla]K
modifications: linker (positions not given here) via trimesic acid; not fully specified (bridges); printed as Tm(aGWIY)Δ(FΦRrRΔ)-BBK
B13: fluorescently labeled peptide 7 (peptide)
peptide: GWIYA[Dap]F[2Nal]R[dR]R[Dap][βAla][βAla]K
modifications: linker (positions not given here) via trimesic acid; not fully specified (bridges); printed as Tm(GWIYA)Δ(FΦRrRΔ)-BBK; also: FITC label, site not given here
B14: peptide 15 (peptide)
peptide: GWIYA[Dap]A[2Nal]R[dR]R[Dap][βAla][βAla]K
modifications: linker (positions not given here) via trimesic acid; not fully specified (bridges); printed as Tm(GWIYA)Δ(AΦRrRΔ)-BBK
B15: peptide 17 (peptide)
peptide: GWIYA[Dap]F[2Nal]A[dR]R[Dap][βAla][βAla]K
modifications: linker (positions not given here) via trimesic acid; not fully specified (bridges); printed as Tm(GWIYA)Δ(FΦArRΔ)-BBK
B16: peptide 8 (peptide)
peptide: GWIY[dA][Dap]F[2Nal]R[dR]R[Dap][βAla][βAla]K
modifications: linker N-6-12 via Trimesoyl
B17: peptide 2 (peptide)
peptide: GWIY[Dap]F[2Nal]RRR[Dap][βAla][βAla]K
modifications: linker (positions not given here) via trimesic acid; not fully specified (bridges); printed as Tm(GWIY)Δ(FΦRRRΔ)-BBK
B18: peptide 16 (peptide)
peptide: GWIYA[Dap]FAR[dR]R[Dap][βAla][βAla]K
modifications: linker N-6-12 via Trimesoyl; not fully specified (N-terminus); printed as Tm(GWIYA)Δ(FARrRΔ)-BBK
notes: Alanine-scan variant of peptide 7
B19: peptide 6 (peptide)
peptide: GWIY[Dap]F[2Nal]R[dR]R[Dap][βAla][βAla]K
modifications: linker (positions not given here) via trimesic acid; not fully specified (bridges); printed as Tm(GWIY)Δ(FΦRrRΔ)-BBK
B20: peptide 5 (peptide)
peptide: GWIY[Dap]F[2Nal]RRR[Dap][dR][βAla]K
modifications: linker N-5-11 via Trimesoyl; not fully specified (N-terminus); printed as Tm(GWIY)Δ(FΦRRRA)-rBK
notes: Bicyclic peptide; D-arginine outside the B ring
B21: peptide 12 (peptide)
peptide: GAIYA[Dap]F[2Nal]R[dR]R[Dap][βAla][βAla]K
modifications: linker (positions not given here) via trimesic acid; not fully specified (bridges); printed as Tm(GAIYA)Δ(FΦRrRΔ)-BBK

How the values were obtained:
[1] = molecular target: T1, Recombinant GST-NEMO (NEMO(1-196)) (UniProt Q9Y6K9 1-196, biotinylated in the library screen); assay: HTRF competition, GST-NEMO + biotin-IKKβKK/RR(701-745), peptide 0-100 µM
T1 construct: range 1-196; Expressed in E. coli BL21(DE3); also called NF-κB essential modulator; IKKγ; not shown: glutathione S-transferase (GST) tag encoded by the pGEX4T3 vector

[2] = molecular target: T1, Recombinant GST-NEMO (NEMO(1-196)); assay: HTRF competition IC50 against peptide 7
[3] = molecular target: T1, Recombinant GST-NEMO (NEMO(1-196)); assay: HTRF competition IC50, peptide 7 against peptide 6
[4] = molecular target: NEMO (endogenous, inside cultured cells) (UniProt Q9Y6K9 1-419); assay: cell-based or functional assay
[5] = molecular target: T1, Recombinant GST-NEMO (NEMO(1-196)); assay: HTRF competition IC50, alanine scan against peptide 7
[6] = molecular target: T1, Recombinant GST-NEMO (NEMO(1-196)); assay: fluorescence anisotropy (FA), direct binding
[7] = molecular target: T1, Recombinant GST-NEMO (NEMO(1-196)); assay: HTRF competition, GST-NEMO + biotin-IKKβKK/RR(701-745)

T1 sequence (Q9Y6K9 1-196): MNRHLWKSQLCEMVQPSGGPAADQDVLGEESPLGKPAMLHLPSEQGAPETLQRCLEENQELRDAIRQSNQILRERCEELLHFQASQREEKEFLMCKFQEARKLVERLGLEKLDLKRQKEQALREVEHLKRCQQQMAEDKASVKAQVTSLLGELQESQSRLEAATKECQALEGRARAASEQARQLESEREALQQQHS
NEMO (endogenous, inside cultured cells), sequence (Q9Y6K9 whole entry): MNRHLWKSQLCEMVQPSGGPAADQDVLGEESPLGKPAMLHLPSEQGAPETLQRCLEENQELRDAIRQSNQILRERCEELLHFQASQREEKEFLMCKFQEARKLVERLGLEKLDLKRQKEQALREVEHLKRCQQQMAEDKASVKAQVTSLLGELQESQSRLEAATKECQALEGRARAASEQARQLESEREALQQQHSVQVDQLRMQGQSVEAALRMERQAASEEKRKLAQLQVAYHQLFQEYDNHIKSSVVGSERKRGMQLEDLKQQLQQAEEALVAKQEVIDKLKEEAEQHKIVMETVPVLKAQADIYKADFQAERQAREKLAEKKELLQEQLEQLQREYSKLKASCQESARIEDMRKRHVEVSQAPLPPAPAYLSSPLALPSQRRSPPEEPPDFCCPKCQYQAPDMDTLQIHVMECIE

| Binder | IC50 [1] [µM] | other results |
| --- | --- | --- |
| B1 | 2.2 | – |
| B2 | 1.2 | – |
| B3 | 1.5 | – |
| B4 | – | fold lower NEMO-binding affinity against peptide 7 [2]: > 100 fold |
| B5 | 1 | fold increase in binding affinity against peptide 6 [3]: 5.9 fold; inhibition of TNFα-induced NF-κB activation, luciferase in HEK293(Luc) cells, IC50 [4]: 10 µM |
| B6 | 1.7 | fold decrease in potency against peptide 7 [5]: 2 to 3 fold |
| B7 | 2.8 | – |
| B8 | 1.2 | – |
| B9 | 1.8 | – |
| B10 | 2.1 | – |
| B11 | 16 | fold lower NEMO-binding affinity against peptide 7 [2]: 16 fold |
| B12 | 2.3 | – |
| B13 | – | Kd [6]: 0.22 µM |
| B14 | 1.9 | – |
| B15 | 1.1 | – |
| B16 | 2.9 | – |
| B17 | 3.4 | IC50 [7]: 3.4 to 28 µM |
| B18 | 2.8 | – |
| B19 | 5.9 | – |
| B20 | 1.3 | – |
| B21 | 3 | fold decrease in potency against peptide 7 [5]: 2 to 3 fold |
